# B1: HA-angiotensin II subtype 1a receptor (receptor, UniProt P25095 1-359, looked up)
# chain: MALNSSAEDGIKRIQDDCPKAGRHSYIFVMIPTLYSIIFVVGIFGNSLVVIVIYFYMKLKTVASVFLLNLALADLCFLLTLPLWAVYTAMEYRWPFGNHLCKIASASVSFNLYASVFLLTCLSIDRYLAIVHPMKSRLRRTMLVAKVTCIIIWLMAGLASLPAVIHRNVYFIENTNITVCAFHYESRNSTLPIGLGLTKNILGFLFPFLIILTSYTLIWKALKKAYEIQKNKPRNDDIFRIIMAIVLFFFFSWVPHQIFTFLDVLIQLGVIHDCKISDIVDTAMPITICIAYFNNCLNPLFYGFLGKKFKKYFLQLLKYIPPKAKSHSSLSTKMSTLSYRPSDNMSSSAKKPASCFEVE
# notes: angiotensin II subtype 1a receptor, family A GPCR; theoretical contour length of the HA-tagged receptor 147 nm at 0.4 nm per amino acid; The subtype name 1a points to a rodent receptor (rat P25095 or mouse P29754, both 359 residues); 147 nm (about 368 residues) fits 359 residues plus a 9-residue HA tag; also called HA-AT1a-R; AT1a-R; source: WTT-CHO cells, transiently transfected (1 µg vector); …
# Target: the molecule itself
# Test: AFM single-molecule force spectroscopy (AFM-SMFS); living WTT-CHO cells transfected with 1 µg of HA-GPCR vector, basal state, 37 °C; anti-HA antibody on the AFM tip pulls the HA-receptor out of the membrane; unfolding distances fitted by a Gaussian mixture (BIC) and each population assigned to an oligomeric state by the receptor's theoretical length
protein,measurement,value
B1,stoichiometry N,2

# From paper PMC8913689, “Atomic force microscopy-single-molecule force spectroscopy unveils GPCR cell surface architecture” (Communications Biology, 2022)
